Article PMC4072508, “Genome-Wide Prediction and Validation of Peptides That Bind Human Prosurvival Bcl-2 Proteins” (PLoS Computational Biology, 2014)

T1: Bfl-1, Q16548
T1 chain: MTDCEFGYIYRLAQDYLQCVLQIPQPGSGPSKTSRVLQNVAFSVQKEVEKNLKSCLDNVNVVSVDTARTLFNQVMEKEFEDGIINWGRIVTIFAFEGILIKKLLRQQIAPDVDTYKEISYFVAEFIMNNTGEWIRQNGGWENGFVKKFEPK

T2: Bcl-w, Q92843
T2 chain: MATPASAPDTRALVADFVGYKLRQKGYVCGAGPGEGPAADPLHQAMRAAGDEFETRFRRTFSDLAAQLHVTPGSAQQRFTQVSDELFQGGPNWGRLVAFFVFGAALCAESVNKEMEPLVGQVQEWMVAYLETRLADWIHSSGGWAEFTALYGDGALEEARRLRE

T3: Bcl-2, P10415
T3 chain: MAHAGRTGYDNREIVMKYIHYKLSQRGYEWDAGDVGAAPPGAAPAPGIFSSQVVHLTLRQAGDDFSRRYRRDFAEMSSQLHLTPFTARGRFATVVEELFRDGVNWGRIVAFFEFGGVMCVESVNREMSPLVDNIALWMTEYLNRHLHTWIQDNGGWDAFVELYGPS

T4: Mcl-1, Q07820
T4 chain: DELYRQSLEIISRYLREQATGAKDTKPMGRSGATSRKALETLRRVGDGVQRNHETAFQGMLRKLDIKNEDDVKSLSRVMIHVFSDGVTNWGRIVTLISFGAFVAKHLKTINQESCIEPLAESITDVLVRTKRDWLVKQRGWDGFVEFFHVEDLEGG


Experiments:
[1] = target: T1, Bfl-1, Q16548; experiment: fluorescence polarisation, direct titration of receptor into 10 nM labelled peptide
[2] = target: T2, Bcl-w, Q92843; experiment: as above
[3] = target: T3, Bcl-2, P10415; experiment: as above
[4] = target: T1, Bfl-1, Q16548; experiment: peptide SPOT array, c-Myc-tagged receptor at 1 uM or 100 nM, anti-c-Myc-Cy3
[5] = target: Bcl-2, P10415; experiment: as above
[6] = target: T2, Bcl-w, Q92843; experiment: as above
[7] = target: T4, Mcl-1, Q07820; experiment: as above
[8] = target: Bcl-xL, Q07817; experiment: as above
[9] = target: T4, Mcl-1, Q07820; experiment: fluorescence polarisation, direct titration of receptor into 10 nM labelled peptide

Chain of Bcl-xL, Q07817 (Q07817 1-209): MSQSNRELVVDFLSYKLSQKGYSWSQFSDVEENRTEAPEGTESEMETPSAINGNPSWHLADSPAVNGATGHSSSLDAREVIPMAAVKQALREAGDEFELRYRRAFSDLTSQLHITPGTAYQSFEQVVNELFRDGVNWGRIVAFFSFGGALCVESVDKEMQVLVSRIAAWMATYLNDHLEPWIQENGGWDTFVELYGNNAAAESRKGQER

Row | Binder | Kd [1] [nM] | Kd [2] [nM] | Kd [3] [nM] | SPOT signal as a fraction of Bim BH3's signal on the same receptor and array [4] | SPOT signal as a fraction of Bim BH3's signal on the same receptor and array [5] | SPOT signal as a fraction of Bim BH3's signal on the same receptor and array [6] | SPOT signal as a fraction of Bim BH3's signal on the same receptor and array [7] | SPOT signal as a fraction of Bim BH3's signal on the same receptor and array [8] | Kd [9] [nM]
1 | SWFIQSLCAMLKQYADKLEFMHILTR [CASP3] | 43 | 64 | 264 | 0.25 | – | – | – | – | –
2 | AAVGNHVAKLLQSIGQAPESISEKEL [NAE1] | – | – | – | 0.02 | 0.01 | 0.02 | 0.02 | 0.03 | –
3 | DISLSNSGFKLVNFGCDYHQYRDKFS [PION] | – | – | – | 0.38 | 0.09 | 0.2 | 0.14 | 0.39 | –
4 | SATHDEAVQVLKKTGKEVVLEVKYMK [SNTA1] | – | – | – | 0.05 | 0.02 | 0.08 | 0.06 | 0.15 | –
5 | KYDPSKYCHNLKKIGEDFSNTIPISS [NOL8] | – | – | – | 0.05 | 0.02 | 0.05 | 0.03 | 0.57 | –
6 | DLTDKLVSFYLETYGAELTANVLRDM [PYCARD] | – | – | – | 0.02 | 0.01 | 0.03 | 0.07 | 0.04 | –
7 | DNHKKKTVKMLEYLGKDVLHGVFNYL [CASP5] | – | – | – | 0.19 | 0.05 | 0.21 | 0.11 | 0.28 | –
8 | IKKSVTKGEMLKIVGKRFREHFPEIL [MAGEB2] | – | – | – | 0.45 | 0.15 | 0.59 | 0.27 | 0.52 | –
9 | DAIIQMIVELLKRVGDQWEEEQSLAS [c6orf222] | 1 | 13 | 0.3 | – | – | – | – | – | 23
10 | GDRAGGRSWCLRRVGMSAGWLLLEDG [RNF8] | – | – | – | 0.13 | 0.04 | 0.07 | 0.06 | 0.12 | –
11 | LGRTGQVCLFLKRGADQHALDQEQRD [ACAP3] | – | – | – | 0.16 | 0.06 | 0.11 | 0.08 | 0.41 | –
12 | KEFLALASSSLLKIGQETDKTTTRNR [NCKAP1] | – | – | – | 0.23 | 0.03 | 0.26 | 0.12 | 0.26 | –
13 | VAGYRESAAFLLRSADELENLILQQN [NOL4] | – | – | – | 0.02 | 0.01 | 0.03 | 0.04 | 0.04 | –
14 | ADLYEEAAENLHQLSDKLPAPGRAMV [MTBP] | – | – | – | 0.02 | 0.01 | 0.02 | 0.02 | 0.02 | –
15 | FMEKLDNGALLCQLAETMQEKFKESM [GAS2] | – | – | – | 0.02 | 0.01 | 0.02 | 0.02 | 0.03 | –
16 | PEDLQDVGWFLHKLSQQILKKEKEKK [TLR5] | – | – | – | 0.25 | 0.07 | 0.3 | 0.3 | 0.1 | –
17 | LQLHRVLPPDLKSLGDQYVKDEFRRH [ACN9] | – | – | – | 0.15 | 0.05 | 0.14 | 0.1 | 0.28 | –
18 | SVGGRGISSKLDSLADELKFVPIIGI [SACS] | – | – | – | 0.02 | 0.01 | 0.02 | 0.02 | 0.03 | –
19 | KIETTPESRYLAQIGDSVSLTCSTTG [VCAM1] | > 3370 | > 4350 | > 3040 | 0.03 | – | – | – | – | –
